Measurements reported in patent US20250115669A1, “FGFR1/KLB Targeting Agonistic Antigen-Binding Proteins and Conjugates Thereof with GLP-1R Agonistic Peptides” (SANOFI, priority 2020, published 2025).

Legend:
[1] = target: T1, FGFR1c and co-receptor beta-Klotho (KLB) (Homo sapiens, UniProt P11362+Q86Z14); assay: Luciferase reporter gene assay (iLite FGF21 Assay Ready Cells), FGF21-like signaling; format: cell-based
T1 construct: host or cells: iLite FGF21 Assay Ready Cells (HEK293)

[2] = In vivo PK in transgenic humanized FcRn mice (Tg32); settings: 0.3 mg/kg single IV, plasma, noncompartmental analysis
Experimental: In vivo PK studies were conducted in transgenic humanized FcRn mice (Tg32). For these studies, no GLP compliance was claimed.

[3] = In vivo PK in cynomolgus monkeys, single intravenous dose; design: species or system Cynomolgus monkey (Macaca fascicularis); settings: Macaca fascicularis, plasma
Experimental: Naive cynomolgus monkeys received a single intravenous dose of mAb according to the following table:
In all investigations, the animals were evaluated twice daily for post-dose mortality/moribundity and cage side clinical observations were carried out after each study blood collection time. Studies were Non-GLP, nevertheless, these studies have been conducted in a GLP compliant facility using practices detailed in Standard Operating Procedures consistent with the principles of GLP (Test facility: Sanofi and Charles River Laboratories). Plasma concentrations and pharmacokinetic parameters of the tested antibodies were investigated after single intravenous administration.

[4] = Nano differential scanning fluorimetry (nanoDSF), Tonset and Tm; format: physicochemical
Experimental: Onset temperatures (Tonset) and melting points (Tm) of protein denaturation were determined using nano differential scanning fluorimetry (nanoDSF). Samples were diluted in formulation buffer to a final concentration of 0.5 mg/mL and loaded into nanoDSF capillaries in duplicates (Nanotemper Technologies). All measurements were done using a Prometheus NT.plex nanoDSF device (Nanotemper Technologies). Heating rate was 1° C. per minute from 20° C. to 95° C. Data were recorded using PR.ThermControl Software v2.3.1 (Nanotemper Technologies) and analyzed using PR.Stability Analysis Software v1.0.3 (Nanotemper Technologies).

[5] = Capillary gel electrophoresis (cGE); format: physicochemical
Experimental: Capillary Gel Electrophoresis (cGE) Purity and size heterogeneity of the samples was determined by capillary gel electrophoresis (cGE) using a CES18000 instrument (SCIEX) equipped with a pre-assembled fused silica capillary (50 μm×300 mm, SCIEX). Protein samples at 1 mg/ml were prepared using the IgG purity heterogeneity Kit (SCIEX) under non-reducing conditions according to the manufacturer's specifications. Samples were electrophoretically separated for 35 minutes at 25° C. and the absorbance at 220 nm was recorded by a photo diode array (PDA) detector. The data were analyzed using 32 Karat Software (SCIEX).

[6] = Hydrophobic interaction chromatography (HIC); format: physicochemical
Experimental: The analysis was run at a flow rate of 1 mL/min with detection at 280 nm. 5 μg of undiluted protein sample were applied onto the column. Gradient elution was from 15% B to 85% B in 7 min followed by 1 min to 100% B, then 1 min to 15% B and then 3 minutes equilibration at 15% B. Buffer A was composed of 1.5 mol/L ammonium sulfate, 25 mmol/L sodium phosphate pH 7.0. Buffer B was composed of 25 mmol/L sodium phosphate pH 7.0. Data evaluation was performed either using LabSolutions software v5.85 (Shimadzu) or Chromeleon 7 software (Thermo Fisher Scientific).

[7] = Dynamic light scattering (DLS) and diffusion interaction parameter (kD); format: physicochemical
Experimental: Dynamic light scattering (DLS) was performed using a DynaPro Plate Reader (Wyatt Technology). The samples were measured in 384 well assay plates (Corning) at 25° C. Data were evaluated by cumulant fitting using Dynamics Software version 7.7.0.125 (Wyatt Technology).
Colloidal stability of the samples was assessed by measuring the diffusion interaction parameter (kD) at 20° C. using a DynaPro Plate Reader (Wyatt Technology). Before the measurements the samples were buffer exchanged against 5 L of 10 mmol/L Histidine pH 6.0 by dialysis for 20 h with one buffer change using 1 mL Float-A-Lyzer G2 devices with 3.5-5 kDa cut-off (Spectrum Labs). A dilution series from 1 to 4.5 mg/mL, in 0.5 mg/mL increments, was prepared in 10 mmol/L Histidine pH 6.0 and measured in 384 well assay plates (Corning).

[8] = Size-exclusion chromatography (SEC); format: physicochemical
Experimental: Analytical SEC was performed using a BioSECcurity instrument (PSS Polymer) with an AdvanceBio 300 column (4.6 mm×300 mm) and AdvanceBio 300 guard column (Agilent Technologies) at room temperature. The analysis was run at a flow rate of 0.5 mL/min using 2× concentrated D-PBS buffer (Thermo Fisher Scientific) with detection at 280 nm. 10 μL of protein sample (at 1 mg/mL) were applied onto the column. Data evaluation was performed using WinGPC software v8.1 (PSS Polymer). For estimation of the molecular weight, the SEC column was calibrated with the AdvanceBio SEC 300 Å Protein Standard (Agilent Technologies).

T1 sequence (Q86Z14 53-1044 limits assumed): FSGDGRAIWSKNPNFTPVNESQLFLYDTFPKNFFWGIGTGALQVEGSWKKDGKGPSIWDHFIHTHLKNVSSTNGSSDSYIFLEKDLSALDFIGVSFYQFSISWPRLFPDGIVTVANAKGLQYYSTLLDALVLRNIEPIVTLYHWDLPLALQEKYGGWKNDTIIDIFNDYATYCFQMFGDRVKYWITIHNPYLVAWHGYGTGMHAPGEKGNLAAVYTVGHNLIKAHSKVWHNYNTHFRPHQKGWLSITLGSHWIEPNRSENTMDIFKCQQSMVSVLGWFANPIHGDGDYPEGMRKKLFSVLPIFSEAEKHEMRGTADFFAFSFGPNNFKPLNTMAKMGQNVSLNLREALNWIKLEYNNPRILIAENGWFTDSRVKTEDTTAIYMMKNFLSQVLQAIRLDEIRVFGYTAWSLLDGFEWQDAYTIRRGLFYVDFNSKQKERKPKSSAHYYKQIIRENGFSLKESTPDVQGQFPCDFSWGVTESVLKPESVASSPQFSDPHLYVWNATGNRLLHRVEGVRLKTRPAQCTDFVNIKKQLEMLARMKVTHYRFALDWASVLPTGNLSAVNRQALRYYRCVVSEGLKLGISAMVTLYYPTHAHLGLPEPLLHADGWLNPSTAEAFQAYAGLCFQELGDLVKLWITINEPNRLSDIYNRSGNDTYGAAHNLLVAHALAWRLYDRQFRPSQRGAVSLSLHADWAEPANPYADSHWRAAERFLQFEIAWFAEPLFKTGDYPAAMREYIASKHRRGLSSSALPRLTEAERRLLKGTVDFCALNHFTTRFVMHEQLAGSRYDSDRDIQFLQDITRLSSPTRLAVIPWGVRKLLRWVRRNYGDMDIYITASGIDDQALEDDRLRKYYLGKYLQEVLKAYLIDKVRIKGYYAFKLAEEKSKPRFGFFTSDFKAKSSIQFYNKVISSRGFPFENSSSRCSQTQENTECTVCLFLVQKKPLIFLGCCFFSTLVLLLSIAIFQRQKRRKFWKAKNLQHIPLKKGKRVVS
T1 sequence (P11362 22-820 isoform P11362-2 limits assumed): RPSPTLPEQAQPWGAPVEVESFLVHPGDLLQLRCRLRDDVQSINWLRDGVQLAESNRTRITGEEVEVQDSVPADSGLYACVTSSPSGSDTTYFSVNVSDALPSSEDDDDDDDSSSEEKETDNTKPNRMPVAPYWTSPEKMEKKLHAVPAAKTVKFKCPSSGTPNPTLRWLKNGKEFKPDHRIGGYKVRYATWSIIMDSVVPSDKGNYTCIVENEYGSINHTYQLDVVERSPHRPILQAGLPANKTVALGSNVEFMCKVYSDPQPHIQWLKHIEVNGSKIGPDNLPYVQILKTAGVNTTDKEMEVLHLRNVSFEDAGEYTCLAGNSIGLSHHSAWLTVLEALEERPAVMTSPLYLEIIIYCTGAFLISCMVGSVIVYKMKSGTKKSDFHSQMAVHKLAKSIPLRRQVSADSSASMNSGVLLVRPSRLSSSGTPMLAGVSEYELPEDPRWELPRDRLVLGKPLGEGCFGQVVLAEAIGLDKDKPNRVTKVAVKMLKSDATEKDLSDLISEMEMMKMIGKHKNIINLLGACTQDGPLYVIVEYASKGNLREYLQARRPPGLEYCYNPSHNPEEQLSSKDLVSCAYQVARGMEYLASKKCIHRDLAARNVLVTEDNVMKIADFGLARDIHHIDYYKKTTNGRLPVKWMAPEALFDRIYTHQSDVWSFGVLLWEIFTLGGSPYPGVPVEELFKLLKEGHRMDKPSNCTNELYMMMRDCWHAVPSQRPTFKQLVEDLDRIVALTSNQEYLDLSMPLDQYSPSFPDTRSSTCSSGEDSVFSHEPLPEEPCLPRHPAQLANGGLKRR

## 16H7: anti FGFR1c/KLB monoclonal antibody of WO 2011/071783, IgG2 backbone; HC SEQ ID NO: 1, LC SEQ ID NO: 2 [Ab 16H7]
[1]; monovalent Fab versus bivalent antibody
  FGF21-like activity in Luciferase gene reporter assay (in words): shows FGF21-like activity
[2]
  t½: 13 days
[3]; 0.1 mg/kg single IV
  t½: 145 h
[3]; 0.3 mg/kg single IV
  t½: 151 h
[3]; 1.0 mg/kg single IV
  t½: 269 h

## Ab0351: IgG4 PE; 16H7 VL (N25S, D49E, D50E, D91E, N93E); 16H7 VH (M34V, I83T, D109E); HC SEQ ID NO: 40, LC SEQ ID NO: 47
[1]
  cellular activity in the Luciferase gene reporter assay compared to 16H7: comparable cellular activity
[2]
  t½: 14.2 days
[4]
  Thermal stability DSF Tm: 62 °C
  Thermal stability DSF Tonset: 53 °C
[4]; pH 5, 40° C., d 21
  DSF Tm: 61 °C
  DSF Tonset: 45 °C
[4]; pH 5, d 0
  DSF Tm: 61 °C
  DSF Tonset: 50 °C
[4]; pH 6, 40° C., d 21
  DSF Tm: 62 °C
  DSF Tonset: 52 °C
[4]; pH 6, d 0
  DSF Tm: 62 °C
  DSF Tonset: 53 °C
[4]; pH 8, 40° C., d 21
  DSF Tm: 66 °C
  DSF Tonset: 57 °C
[4]; pH 8, d 0
  DSF Tm: 66 °C
  DSF Tonset: 58 °C
[5]
  Homogeneity cGE % Monomer: 83%
[6]
  Hydrophobic variance HIC Number of peaks: 1
[6]; pH 5, 40° C., d 21
  HIC Number of peaks: 1
[6]; pH 5, d 0
  HIC Number of peaks: 1
[6]; pH 6, 40° C., d 21
  HIC Number of peaks: 1
[6]; pH 6, d 0
  HIC Number of peaks: 1
[6]; pH 8, 40° C., d 21
  HIC Number of peaks: 1
[6]; pH 8, d 0
  HIC Number of peaks: 1
[7]
  Homogeneity DLS Hydrodynamic radius: 5.3 nm
[7]; pH 5, 40° C., d 21
  DLS Hydrodynamic radius: 5.6 nm
[7]; pH 5, d 0
  DLS Hydrodynamic radius: 5.4 nm
[7]; pH 6, 40° C., d 21
  DLS Hydrodynamic radius: 5.2 nm
[7]; pH 6, d 0
  DLS Hydrodynamic radius: 5.2 nm
[7]; pH 8, 40° C., d 21
  DLS Hydrodynamic radius: 8.1 nm
[7]; pH 8, d 0
  DLS Hydrodynamic radius: 5.6 nm
[8]; pH 5, 40° C., d 21
  SEC % HMW: 1%
  SEC % LMW: 0%
[8]; pH 5, d 0
  SEC % HMW: 2%
  SEC % LMW: 0%
[8]; pH 6, 40° C., d 21
  SEC % HMW: 1%
  SEC % LMW: 0%
[8]; pH 6, d 0
  SEC % HMW: 0%
  SEC % LMW: 0%
[8]; pH 8, 40° C., d 21
  SEC % HMW: 2%
  SEC % LMW: 1%
[8]; pH 8, d 0
  SEC % HMW: 1%
  SEC % LMW: 0%
